# Results: patent publication US20230242671A1 (Eli Lilly, published 2023)
# Where a chain is given by its changes, count along the chain named.
# B1: cMet-BAH10 IgG1 heteromab (RE on cMet heavy chain Fc region only) (bispecific antibody)
# heavy 1: EVQLVESGGGLVQPGGSLRLSCAASGYTFTSYWLHWVRKAPGKGLEWVGMIDPSNSDTRFNPEFKDRFTISADTSKNTAYLQMNSLRAEDTAVYYCATYRSYVTPLDYWGQGTLVTVSSASTKGPSVFPLAPSSKSTSGGTAALGCLVKDYFPEPVTVSWNSGALTSGVATGPAVLQSSGLYSLSSVVTVPSSSLGTQTYICNVNHKPSNTKVDKKVEPKSCDKTHTCPPCPAPEAAGGPSVFLFPPKPKDTLMISRTPEVTCVVVDVSHEDPEVKFNWYVDGVEVHNAKTKPREEQYNSTYRVVSVLTVLHRDWLNGEEYKCKVSNKALPAPIEKTISKAKGQPREPQVYTLPPSREEMTDNQVSLTCLVKGFYPSDIAVEWESNGQPENNYKTTPPVLMSDGSFFLASKLTVDKSRWQQGNVFSCSVMHEALHNHYTQKSLSLSPGK
# light 1: RIQMTQSPSSLSASVGDRVTITCKSSQSLLYTSSQKNYLAWYQDKPGKAPKLLIYWASTRESGVPSRFSGSGSGTDFTLTISSLQPEDFATYYCQQYYAYPWTFGQGTKVEIKRTVAAPSVFIFPPSDEQLKSGTASVVCYLNNFYPREAKVQWKVDNALQSGNSQESVTEQDSKDSTYSLWSTLTLSKADYEKHKVYACEVTHQGLSSPVTKSFNRGEC
# heavy 2: QVQLVQSGAEVKKPGSSVKVSCKASGYTFTTYYLHWVRYAPGQGLEWMGWIYPGNVHAQYNEKFKGRVTITADKSTSTAYMELSSLRSEDTAVYYCARSWEGFPYWGRGTTVTVSSASTKGPSVFPLAPCSKSTSGGTAALGCLVKDYFPEPVTVSWNSGALTSGVHTFPAVLQSSGLYSLSSVVTVPSSSLGTQTYICNVNHKPSNTKVDKKVEPDSGDKTHTCPPCPAPEAAGGPSVFLFPPKPKDTLMISRTPEVTCVVVDVSHEDPEVKFNWYVDGVEVHNAKTKPREEQYNSTYRVVSVLTVLHQDWLNGKEYKCKVSNKALPAPIEKTISKAKGQPRRPRVYTLPPSREEMTKNQVSLVCLVKGFYPSDIAVEWESNGQPENNYKTTPPVLDSDGSFFLYSVLTVDKSRWQQGNVFSCSVMHEALHNHYTQKSLSLSPGK
# light 2: DIQMTQSPSSLSASVGDRVTITCKASQNVGINVAWYQRKPGDAPKSLISSASYRYSGVPSRFSGSGSGTDFTLTISSLQPEDFATYFCQQYDTYPFTFGQGTKVEIKRTVAAPSVFIFPPSKEQLKSGTASVVCLLNNFYPREAKVQWKVDNALQSGNSQESVTEQDSKDSTYSLSSTLTLSKADYEKHKVYACEVTHQGLSSPVTKSFNRGEC
# notes: also called cMet-BAH10 IgG1 heteromab (with RE HC Fc format on cMet arm only)
# B2: cMet mAb (RE on both HCs) (antibody, human IgG1, kappa, L234A L235A)
# heavy: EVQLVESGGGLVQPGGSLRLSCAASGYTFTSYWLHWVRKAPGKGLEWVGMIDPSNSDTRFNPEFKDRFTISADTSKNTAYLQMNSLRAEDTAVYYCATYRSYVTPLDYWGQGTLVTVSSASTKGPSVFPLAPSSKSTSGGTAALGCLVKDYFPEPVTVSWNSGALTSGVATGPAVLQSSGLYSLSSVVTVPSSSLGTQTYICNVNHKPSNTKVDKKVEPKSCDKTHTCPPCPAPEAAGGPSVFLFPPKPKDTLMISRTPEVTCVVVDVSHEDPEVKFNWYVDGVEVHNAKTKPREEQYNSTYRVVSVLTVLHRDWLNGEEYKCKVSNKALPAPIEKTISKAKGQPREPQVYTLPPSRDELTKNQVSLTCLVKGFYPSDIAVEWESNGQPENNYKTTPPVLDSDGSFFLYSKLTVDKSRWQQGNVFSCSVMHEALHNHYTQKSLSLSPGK
# light: B1 light 1
# notes: IgG1 / kappa; also called cMet parental mAb (with RE HC Fc format on both HCs)
# B3: PD-1-TIGIT parental IgG1 heteromab (bispecific antibody)
# heavy 1: QVQLVQSGAEVKKPGSSVKVSCKASGGTFSSYAISWVRYAPGQGLEWMGLIIPSFDTAGYAQKFQGRVAITVDESTSTAYMELSSLRSEDTAVYYCARAEHSSTGTFDYWGRGTLVTVSSASTKGPSVFPLAPSSKSTSGGTAALGCLVADYFPEPVTVSWNSGALTSGVHTFPAVLQSSGLYSLASVVTVPSSSLGTQTYICNVNHKPSNTKVDERVEPKSCDKTHTCPPCPAPEAAGGPSVFLFPPKPKDTLMISRTPEVTCVVVDVSHEDPEVKFNWYVDGVEVHNAKTKPREEQYNSTYRVVSVLTVLHQDWLNGKEYKCKVSNKALAAPIEKTISKAKGQPREPQVYTLPPSREEMTDNQVSLTCLVKGFYPSDIAVEWESNGQPENNYKTTPPVLMSDGSFFLASKLTVDKSRWQQGNVFSCSVMHEALHNHYTQKSLSLSPGK
# light 1: DIQMTQSPSSVSASVGDRVTITCRASQGISSWLAWYQRKPGDAPKLLISAASSLQSGVPSRFSGSGSGTDFTLTISSLQPEDFATYYCQQANHLPFTFGGGTKVEIKRTVAAPSVFIFPPSDKQLKSGTARVVCLLNNFYPREAKVQWKVDNALQSGNSQESVTEQDSKDSTYSLISTLTLSKADYEKHKVYACEVTHQGLSSPVTKSFNRGEC
# heavy 2: EVQLVESGGGLVQPGGSLRLSCAASGFDFSSYGVPWVRKAPGKGLEWVGYIDPIFGPTYYADEVKGRFTISADDSKNSLYLQMNSLKTEDTAVYYCARDYSYGYAYALDIWGQGTLVTVSSASTKGPSVFPLAPSSKSTSGGTAALGCLVKDYFPEPVTVSWNSGALTSGVHTFPAVLQSSGLYSLSSVVTVPSSSLGTQTYICNVNHKPSNTKVDKRVEPKSCDKTHTCPPCPAPEAAGGPSVFLFPPKPKDTLMISRTPEVTCVVVDVSHEDPEVKFNWYVDGVEVHNAKTKPREEQYNSTYRVVSVLTVLHQDWLNGKEYKCKVSNKALAAPIEKTISKAKGQPRRPRVYTLPPSREEMTKNQVSLVCLVKGFYPSDIAVEWESNGQPENNYKTTPPVLDSDGSFFLYSVLTVDKSRWQQGNVFSCSVMHEALHNHYTQKSLSLSPGK
# light 2: RIVMTQTPLSLSVTPGQPASISCQASQRISPYLAWYLDKPGQPPQLLISRASKLASGVPDRFSGSGSGTDFTLKISRVEAEDVGVYYCQSYYVHTSSGYAFGGGTKVEIKRTVAAPSVFIFPPSDEQLKSGTASVVCLLNNFYPREAKVQWKVDNALQSGNSQESVTEQDSKDSTYSLSSTLTLSKADYEKHKVYACEVTHQGLSSPVTKSFNRGEC
# notes: Unmodified control heteromab; also called PD-1-TIGIT IgG1 heteromab; PD-1-Tigit IgG1 heteromab
# B4: PD-1-TIGIT IgG1 heteromab (DKK on PD-1 light chain Fab region only) (bispecific antibody)
# heavy 1: B3 heavy 1
# light 1: B3 light 1 with V110D, E143K, Q199K
# heavy 2: B3 heavy 2
# light 2: B3 light 2
# notes: also called PD-1-Tigit IgG1 heteromab (with DKK LC Fab region on PD-1 arm only)
# B5: PD-1-TIGIT IgG1 heteromab (ADK on PD-1 light chain Fab region only) (bispecific antibody)
# heavy 1: B3 heavy 1
# light 1: B3 light 1 with T109A, V110D, Q199K
# heavy 2: B3 heavy 2
# light 2: B3 light 2
# notes: also called PD-1-Tigit IgG1 heteromab (with ADK LC Fab region on PD-1 arm only)
# B6: PD-1-TIGIT IgG1 heteromab (KK on PD-1 light chain Fab region only) (bispecific antibody)
# heavy 1: B3 heavy 1
# light 1: B3 light 1 with E143K, Q199K
# heavy 2: B3 heavy 2
# light 2: B3 light 2
# notes: also called PD-1-Tigit IgG1 heteromab (with KK LC Fab region on PD-1 arm only)
# B7: PD-1-TIGIT IgG1 heteromab (DK on PD-1 light chain Fab region only) (bispecific antibody)
# heavy 1: B3 heavy 1
# light 1: B3 light 1 with V110D, E143K
# heavy 2: B3 heavy 2
# light 2: B3 light 2
# notes: also called PD-1-Tigit IgG1 heteromab (with DK LC Fab region on PD-1 arm only)
# Target: T1, Protein A (UniProt P38507 37-327, biotin (site not stated))
# T1 construct: Reagent; also called Biotin-Protein A; Protein A ligand
# Assay: ELISA, Biotin-Protein A
# Procedure: (§1) Binding of the heavy chain Fc region formats of Table 1b for exemplified IgG heteromabs to Protein A ligand may be assessed via ELISA. Briefly, 96-well flat bottom Elisa plates are coated with 2 ug/mL goat anti-human-kappa protein at 100 ul/well and incubated overnight at 4° C. The following day, plates are washed 3× with wash buffer 0.05% PBS-Tween 20 (PBS-T)) and blocked for 1 hr with blocking buffer (casein, 200 µL/well) at room temperature (RT). Plates are washed 3× with wash buffer, and binding proteins (as shown in Table 4) are added to individual wells at 10 μg/mL and serially diluted 1:3, at a volume of 100 uL/well in PBS-T. Plates are incubated at RT for 1 hr, and washed 3× with wash buffer. Biotin-Protein A at 0.5 ug/ml is added at 100 uL/well and plates are incubated for 1 hr at RT, washed 3×, and 100 uL/well of streptavidin labeled alkaline phosphatase (SA-AP) is added to each well. Plates are incubated 30 min at RT. Plates are then washed 3×, and 100 uL/well of p-Nitrophenyl Phosphate, Disodium Salt (PNAP)(Thermo Fisher Scientific) substrate is added. Reactions are stopped and optical density is measured using a colorimetric microplate reader set to 405 nm.
Binder,fold decrease in binding against cMet-BAH10 IgG1 heteromab [fold],fold decrease of binding affinity against parental [fold]
B1,~1.2,
B2,,~2

# Target: T2, CaptureSelect Kappa XL ligand
# T2 construct: also called Biotin-KappaXL; Kappa XL column
# Assay: CaptureSelect Kappa XL affinity column after Protein A
# Text: Multispecific binding proteins of the present disclosure, in clarified medium or recovered from Protein A purification, may be subjected to a second purification step using a CaptureSelect™ Kappa XL (Thermo Fisher Cat. #494321001) pre-packed affinity column. Briefly, multispecific binding proteins of the present disclosure recovered from Protein A purification are subjected to a Kappa XL affinity column which has been equilibrated with a compatible buffer, such as phosphate buffered saline (PBS) at pH 7.4. The column is then washed to remove nonspecific binding components. The bound multispecific binding protein is eluted, for example, by pH gradient (such as 20 mM Tris buffer pH 7.0 to 10 mM sodium citrate buffer pH 3.0). Binding protein fractions are detected, such as by UV absorbance or SDS-PAGE, and then are pooled.
# Percent flow through (% F T) and percent elution of exemplified heteromabs of the present disclosure following kappa XL column purification essentially as described herein is assessed. Briefly, various antibody formats (as set forth in Table 3) are subjected to Kappa XL column. Flow through material is considered to comprise of impurities, such as homodimers, or misassembled antibodies, whereas the Kappa XL ligand bound material (elution material) is considered to be the correctly assembled bispecific antibody.
Binder,% Elution [%],% Flow Through (FT) [%]
B3,99.6,0.44
B4,80.7,19.3
B5,78.2,21.8
B6,74.8,25.2
B7,73.5,26.6

# Target: T3, human TIGIT-ECD (human, UniProt Q495A1 22-141)
# T3 construct: extracellular domain
# T3 sequence (looked up): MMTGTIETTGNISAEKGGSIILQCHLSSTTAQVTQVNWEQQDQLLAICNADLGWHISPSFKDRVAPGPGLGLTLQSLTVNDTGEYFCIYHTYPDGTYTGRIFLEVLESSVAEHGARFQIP
# Assay: ELISA, antibody at 1 µg/mL captured by anti-human-Fc, antigen titrated
# Procedure: (§2) Binding affinity of exemplified multispecific binding proteins provided herein is assessed via ELISA. Briefly, 384-well flat bottom Elisa plates are coated with 1 ug/mL anti-human-Fc protein at 20 ul/well and incubated overnight at 4° C. The following day, plates are washed 3× with wash buffer (0.05% PBS-Tween 20) and blocked for 1 hr with blocking buffer (casein, 60 μL/well) at room temperature (RT). Plates are washed 3× with wash buffer, and binding proteins as shown in Table 10 are added at 1 μg/mL in triplicates at 20 uL/well in DPBS (Dulbecco's HyClone). Plates are incubated at RT for 1 hr, washed 3× with wash buffer, and titrated antigens are added at 20 ul/well and incubated for 60 min at RT. Plates are washed 3×, and 20 uL/well NAAP substrate is added and incubated for 20 min. Plates are washed 3×, and PNPP substrate is added at 20 uL/well, and reactions are stopped, and optical density is measured using a colorimetric microplate reader set to 405 nm.
row,Binder,EC50 [nM]
1,B3,0.0681
2,B4,0.0454
3,B5,0.0108
4,B6,0.0182
5,B7,0.0261

# Target: T4, human PD-1-ECD (human, UniProt Q15116 25-170)
# T4 construct: extracellular domain
# T4 sequence (Q15116 25-170): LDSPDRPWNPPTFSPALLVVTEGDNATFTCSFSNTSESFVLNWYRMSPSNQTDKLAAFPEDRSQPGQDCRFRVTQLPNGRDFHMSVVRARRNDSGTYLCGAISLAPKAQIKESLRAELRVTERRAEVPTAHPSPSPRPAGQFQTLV
# Assay: as above
# Procedure: as §2
row,Binder,EC50 [nM]
1,B3,0.007
2,B4,0.0108
3,B5,0.0303
4,B6,0.0093
5,B7,0.0097

# Target: T1, Protein A
# Assay: ELISA, antibody titrated on goat anti-human-kappa, Biotin-Protein A at 0.5 ug/ml
# Procedure: as §1
row,Binder,EC50 [nM]
1,B1,0.56
2,B2,0.98
